Series [1] deals with T1, human FUS (fused in sarcoma) protein.
T1 chain: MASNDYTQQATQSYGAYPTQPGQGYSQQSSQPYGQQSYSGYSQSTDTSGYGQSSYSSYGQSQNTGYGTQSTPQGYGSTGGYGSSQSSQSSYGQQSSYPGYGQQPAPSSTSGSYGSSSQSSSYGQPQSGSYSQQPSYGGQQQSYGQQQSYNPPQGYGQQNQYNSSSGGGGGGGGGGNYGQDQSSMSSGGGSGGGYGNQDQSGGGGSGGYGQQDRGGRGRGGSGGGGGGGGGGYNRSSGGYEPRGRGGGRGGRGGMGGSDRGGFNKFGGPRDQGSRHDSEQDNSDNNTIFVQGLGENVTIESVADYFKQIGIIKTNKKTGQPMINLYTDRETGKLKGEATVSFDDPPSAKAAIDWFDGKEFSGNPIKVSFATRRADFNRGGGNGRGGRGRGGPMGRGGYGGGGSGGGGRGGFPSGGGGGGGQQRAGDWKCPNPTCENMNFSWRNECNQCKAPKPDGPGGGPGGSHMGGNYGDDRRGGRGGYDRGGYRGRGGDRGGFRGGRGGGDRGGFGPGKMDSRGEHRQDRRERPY

The target in series [2] is T2, human FUS (fused in sarcoma) protein (human, UniProt P35637 1-526).
T2 construct: Human FUS was expressed in Drosophila neurons with the elav-Gal4 driver and seen as cytoplasmic aggregates; also called human wild-type FUS; FUS aggregate
T2 sequence: T1 chain
The series can be described thus: immunofluorescence co-localisation in Drosophila brain neurons (anti-GstO2 / anti-FUS).

B1: Drosophila omega class glutathione transferase 2 (GstO2) (enzyme)
chain: MALPQKHFKRGSTKPELPEDGVPRFFSMAFCPFSHRVRLMLAAKHIEHHKIYVDLIEKPEWYKDFSPLGKVPALQLTGVKDQPTLVESLIIAEYLDQQYPQTRLFPTDPLQKALDKILIERFAPVVSAIYPVLTCNPNAPKDAIPNFENALDVFEVELGKRGTPYFAGQHIGIVDYMIWPWFERFPSMKINTEQKYELDTKRFEKLLKWRDLMTQDEVVQKTALDVQLHAEFQKSKTLGNPQYDIAFKGTP
notes: also called endogenous GstO2
Turning to B1, in series [1], the “FUS glutathionylation and FUS aggregate formation (double immunofluorescence of fly brain tissue, anti-FUS / anti-GSH)” value is “GstO2 coexpression inhibits an increase in formation of a FUS aggregate, and reduces FUS glutathionylation”. The binding result in series [2] was “binds”.

Source of the values: patent US20220026447A1 (SOONCHUNHYANG UNIVERSITY INDUSTRY ACADEMY COOPERATION …, published 2022).
